Biological target: T1, PTH receptor (Homo sapiens, UniProt Q03431)
T1 construct: expressed in transfected cells; host or cells: HEK-293
T1 sequence (Q03431 27-593): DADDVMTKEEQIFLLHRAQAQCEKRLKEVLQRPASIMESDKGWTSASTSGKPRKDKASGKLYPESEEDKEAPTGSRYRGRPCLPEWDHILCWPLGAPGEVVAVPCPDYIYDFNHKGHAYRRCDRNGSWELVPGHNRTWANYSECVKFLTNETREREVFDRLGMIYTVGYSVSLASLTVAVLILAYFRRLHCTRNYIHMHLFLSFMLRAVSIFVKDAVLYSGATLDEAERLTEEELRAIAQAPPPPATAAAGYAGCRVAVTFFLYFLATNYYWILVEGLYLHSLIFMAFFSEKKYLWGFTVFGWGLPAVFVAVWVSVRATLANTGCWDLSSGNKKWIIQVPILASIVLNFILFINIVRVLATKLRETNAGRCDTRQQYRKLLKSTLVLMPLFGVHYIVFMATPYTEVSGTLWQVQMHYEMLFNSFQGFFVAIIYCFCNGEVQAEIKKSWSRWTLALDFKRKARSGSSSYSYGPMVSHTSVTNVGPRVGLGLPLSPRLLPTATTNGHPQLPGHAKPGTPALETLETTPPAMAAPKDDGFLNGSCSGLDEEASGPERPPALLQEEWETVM
Assay: Luciferase reporter assay in hPTH receptor-expressing HEK-293 cells
Type: cell-based
Conditions: clones of PTH receptor expressing HEK-293 cells bearing pMCL3zeo luciferase reporter gene; clones selected for assay development
Source text: This cell line is obtained as described by Pines et al., Endocrinology, 1994, 135(4), 1713-1716, incorporated herein by reference.
The firefly luciferase reporter gene bearing the cAMP responsive elements is amplified by PCR from the pDMC16LUC vector using the method of Spengler et al., Nature, 1993, 365: 170-175, incorporated herein by reference. The PCR product containing the MMTV promoter, sixteen cAMP responsive elements and the luciferase gene is inserted into the zeocin resistant vector (pUTSV1 from InVitrogen). The final vector, termed pMCL3zeo, is then introduced into PTH receptor expressing HEK-293 cells using the lipofectamine method (reagents and method obtained from Gibco/BRL). Cells incorporating the luciferase reporter gene are selected by including zeocin in the culture medium. By limited dilution, different cell clones are isolated and expanded. These clones are tested for their responsiveness to PTH in terms of luciferase expression.
hPTH receptor-expressing HEK-293 cells bearing the luciferase reporter gene are cultured to 80-90% confluency. […] The luciferase activity in the lysates is measured by the addition of the luciferin substrate (Promega assay kit) to effect light production. The output of light is measured in a Wallac Trilux microbeta plate reader.

luciferase induction: 5-6 fold
Substance: parathyroid hormone [PTH]

Reference: patent US6720153B1, “Luciferase reporter bioassay of parathyroid hormone compounds” (Aventis Pharmaceuticals Inc., priority 1998, dated 2004)
